For the test, the target named is T1, AtPRP40b, recombinant (A. thaliana, UniProt F4JCC1 1-992).
T1 sequence: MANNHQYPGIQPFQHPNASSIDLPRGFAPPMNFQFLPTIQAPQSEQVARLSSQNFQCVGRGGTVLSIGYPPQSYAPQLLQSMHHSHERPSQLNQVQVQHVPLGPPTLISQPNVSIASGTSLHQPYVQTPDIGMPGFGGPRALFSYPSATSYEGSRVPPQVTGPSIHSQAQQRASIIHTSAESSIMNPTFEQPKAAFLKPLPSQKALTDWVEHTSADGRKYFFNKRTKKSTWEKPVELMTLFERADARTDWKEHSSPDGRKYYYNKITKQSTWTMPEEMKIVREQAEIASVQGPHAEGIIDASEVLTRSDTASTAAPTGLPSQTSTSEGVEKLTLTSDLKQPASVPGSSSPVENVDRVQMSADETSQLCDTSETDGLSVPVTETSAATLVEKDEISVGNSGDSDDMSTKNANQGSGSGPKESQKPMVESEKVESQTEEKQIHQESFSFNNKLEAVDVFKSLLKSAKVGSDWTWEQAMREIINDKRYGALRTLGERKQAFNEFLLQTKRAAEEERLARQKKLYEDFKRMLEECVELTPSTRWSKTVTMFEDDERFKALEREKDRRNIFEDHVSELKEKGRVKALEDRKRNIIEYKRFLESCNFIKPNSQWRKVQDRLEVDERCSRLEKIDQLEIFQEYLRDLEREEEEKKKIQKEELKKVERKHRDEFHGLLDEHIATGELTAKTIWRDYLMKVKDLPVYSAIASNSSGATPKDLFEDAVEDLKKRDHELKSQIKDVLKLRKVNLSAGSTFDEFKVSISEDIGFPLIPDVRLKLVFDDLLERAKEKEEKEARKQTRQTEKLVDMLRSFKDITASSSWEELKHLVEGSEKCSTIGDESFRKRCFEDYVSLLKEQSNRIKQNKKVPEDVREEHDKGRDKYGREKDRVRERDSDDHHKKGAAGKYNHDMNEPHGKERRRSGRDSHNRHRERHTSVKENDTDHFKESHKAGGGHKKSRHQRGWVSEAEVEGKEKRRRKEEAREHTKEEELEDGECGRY
The test is described as follows: pull-down.

B1: SERRATE (SE), full length, recombinant (natural protein, A. thaliana, UniProt Q9ZVD0 1-720, looked up)
chain: MADVNLPPSDSVDNRLPEKSTSSSPPPPPPSSSLPQQEQEQDQQQLPLRRERDSRERRDERDIERPPPNRRERDRSPLPPPRRDYKRRPSLSPPPPYRDRRHSPPQRRSPPQKRYRRDDNGYDGRRGSPRGGYGPPDRRFGYDHGGGYDREMGGRPGYGDERPHGRFMGRYQDWEGGRGGYGDASNSGNPQRDGLMSYKQFIQELEDDILPSEAERRYQEYKSEYITTQKRAFFNTHKEEDWLKNKYHPTNLLSVIERRNDLAQKVAKDFLLDLQSGTLDLGPAVTALNKSGRTSEPNSEDEAAGVGKRKRHGMGGAKENELLSAAPKAPSFTSDPKRILTDVEQTQALVRKLDSEKKIEENVLQGSETEKSGREKLHSGSTGPVVIIRGLTSVKGLEGVELLDTLVTYLWRVHGLDYYGKVETNEAKGLRHVRAEGKVSDAKGDENESKFDSHWQERLKGQDPLEVMAAKEKIDAAATEALDPHVRKIRDEKYGWKYGCGAKGCTKLFHAAEFVYKHLKLKHTELVTELTTKVREELYFQNYMNDPNAPGGQPATQQSGPRDRPIRRKPSMENRLRDDRGGRRERDGRANGNDRNDRSEDQQRGDNDGGNPGEVGYDAFGGQGGVHVPPFLSDINPPPMLMPVPGAGPLGPFVPAPPEVAMQMFRDPSGPNPPFEGSGRGGPAPFLLSPAFRQDPRRLRSYQDLDAPEEEVTVIDYRSL
With B1, the binding result is “binds”.

For the origin of these results see paper doi:10.1101/2022.01.31.478465 (bioRxiv, 2022).
